Measurements taken from patent US20230192896A1 (published 2023).
Where a chain is given by its changes, count along the chain named.

T1: FX zymogen (UniProt P00742 41-179; P00742 183-488)
T1 chain 1: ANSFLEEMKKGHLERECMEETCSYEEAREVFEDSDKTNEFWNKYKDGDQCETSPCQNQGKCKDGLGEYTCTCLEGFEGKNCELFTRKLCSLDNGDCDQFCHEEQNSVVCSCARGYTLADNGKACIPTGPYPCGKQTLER
T1 chain 2: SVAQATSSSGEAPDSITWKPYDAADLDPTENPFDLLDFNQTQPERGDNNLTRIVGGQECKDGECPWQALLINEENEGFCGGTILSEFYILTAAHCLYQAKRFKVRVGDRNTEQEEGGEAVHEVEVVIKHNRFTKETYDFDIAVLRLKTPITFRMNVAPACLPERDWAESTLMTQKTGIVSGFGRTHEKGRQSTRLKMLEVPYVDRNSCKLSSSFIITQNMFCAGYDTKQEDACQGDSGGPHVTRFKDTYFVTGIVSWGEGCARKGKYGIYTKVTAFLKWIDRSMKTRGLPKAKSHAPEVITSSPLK

B1: BIIB-12-1306 (antibody, V domains shown)
VH: QVQLQESGPGLVKPSQTLSLTCTVSGGSISSGGYYWSWIRQHPGKGLEWIGSIYYSGSTYYNPSLKSRVTISVDTSKNQFSLKLSSVTAADTAVYYCARGAGGSAPWGQGTLVTVSS
VL: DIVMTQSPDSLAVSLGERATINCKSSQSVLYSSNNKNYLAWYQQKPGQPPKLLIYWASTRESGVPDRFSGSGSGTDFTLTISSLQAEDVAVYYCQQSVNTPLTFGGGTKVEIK
B2: BIIB-12-929 (antibody, V domains shown)
VH: QVQLVQSGAEVKKPGASVKVSCKASGYTFTSYYMHWVRQAPGQGLEWMGIINPSGGSTSYAQKFQGRVTMTRDTSTSTVYMELSSLRSEDTAVYYCARDQGYSRSFDIWGQGTMVTVSS
VL: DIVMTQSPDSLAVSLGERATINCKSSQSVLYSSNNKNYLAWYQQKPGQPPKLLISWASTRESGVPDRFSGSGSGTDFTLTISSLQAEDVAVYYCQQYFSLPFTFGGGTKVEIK
B3: BIIB-12-1303 (antibody, V domains shown)
VH: QVQLVESGGGVVQPGRSLRLSCAASGFTFSSYGMHWVRQAPGKGLEWVAVISYDGSNKYYADSVKGRFTISRDNSKNTLYLQMNSLRAEDTAVYYCARGPTSRLFQHWGQGTLVTVS
VL: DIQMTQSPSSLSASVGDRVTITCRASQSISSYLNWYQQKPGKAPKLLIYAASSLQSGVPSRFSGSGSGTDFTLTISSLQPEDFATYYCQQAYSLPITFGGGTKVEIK
B4: BIIB-12-915 (antibody, V domains shown)
VH: QLQLQESGPGLVKPSETLSLTCTVSGGSISSSRYYWGWIRQPPGKGLEWIGSIYYSGSTYYNPSLKSRVTISVDTSKNQFSLKLSSVTAADTAVYYCARVGGGYANPWGQGTLVTVSS
VL: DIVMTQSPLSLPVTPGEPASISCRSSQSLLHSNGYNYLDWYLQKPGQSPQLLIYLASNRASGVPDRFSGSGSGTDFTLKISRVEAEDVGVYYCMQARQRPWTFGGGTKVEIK
B5: BIIB-12-1322 (antibody, V domains shown)
VH: QVQLVQSGAEVKKPGASVKVSCKASGYTFTSYYIHWVRQAPGQGLEWMGIINPSGGSTSYAQKFQGRVTMTRDTSTSTVYMELSSLRSEDTAVYYCARSRQRHRGDWYFDLWGRGTLVTVSS
VL: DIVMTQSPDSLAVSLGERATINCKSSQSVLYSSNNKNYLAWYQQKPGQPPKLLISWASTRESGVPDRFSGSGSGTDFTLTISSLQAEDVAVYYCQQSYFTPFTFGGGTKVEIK
B6: BIIB-12-932 (antibody, V domains shown)
VH: QVQLVESGGGVVQPGRSLRLSCAASGFTFSSYGMHWVRQAPGKGLEWVAVISYDGSNKYYADSVKGRFTISRDNSKNTLYLQMNSLRAEDTAVYYCARLGYRGASAFDIWGQGTMVTVSS
VL: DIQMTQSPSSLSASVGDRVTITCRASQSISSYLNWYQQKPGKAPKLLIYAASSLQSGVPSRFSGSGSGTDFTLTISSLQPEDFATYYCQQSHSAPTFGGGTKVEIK
B7: BIIB-12-931 (antibody, V domains shown)
VH: QVQLVQSGAEVKKPGASVKVSCKASGYTFTSYYMSWVRQAPGQGLEWMGIINPSGGSTSYAQKFQGRVTMTRDTSTSTVYMELSSLRSEDTAVYYCARDPVQEYGPYYYYMDVWGKGTTVTVSS
VL: EIVMTQSPATLSVSPGERATLSCRASQSVSSNLAWYQQKPGQAPRLLIYGASTRATGIPARFSGSGSGTEFTLTISSLQSEDFAVYYCQQAAYWPWTFGGGTKVEIK
B8: BIIB-12-904 (antibody, V domains shown)
VH: QVQLVESGGGVVQPGRSLRLSCAASGFTFSSYGMHWVRQAPGKGLEWVAVISYDGSNKYYADSVKGRFTISRDNSKNTLYLQMNSLRAEDTAVYYCARGSGRSGYHYWGQGTLVTVSS
VL: B7 VL with A92F, Y93N, W96P
B9: BIIB-12-926 (antibody, V domains shown)
VH: QVQLVQSGAEVKKPGASVKVSCKASGYTFTSYYMHWVRQAPGQGLEWMGIINPSGGSTSYAQKFQGRVTMTRDTSTSTVYMELSSLRSEDTAVYYCARDGRMARGASPDYWGQGTLVTVSS
VL: B7 VL with A91H, A92S, Y93F, W96P
B10: BIIB-12-1327 (antibody, V domains shown)
VH: QVQLVESGGGVVQPGRSLRLSCAASGFTFSSYGMHWVRQAPGKGLEWVAVISYDGSNKYYADSVKGRFTISRDNSKNTLYLQMNSLRAEDTAVYYCAKLGLARGGGYGMDVWGQGTTVTVSS
VL: B7 VL with L11Q, S12Y, A91Y, A92H, Y93N, W94F, W96P
B11: BIIB-12-936 (antibody, V domains shown)
VH: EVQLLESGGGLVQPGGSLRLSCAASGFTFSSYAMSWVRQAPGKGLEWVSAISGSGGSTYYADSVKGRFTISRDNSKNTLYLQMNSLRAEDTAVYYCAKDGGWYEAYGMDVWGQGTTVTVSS
VL: B7 VL with A91S, A92H, Y93N, W94L, W96P
B12: BIIB-12-923 (antibody, V domains shown)
VH: QVQLVQSGAEVKKPGASVKVSCKASGYTFTSYYMHWVRQAPGQGLEWMGIINPSGGSTSYAQKFQGRVTMTRDTSTSTVYMELSSLRSEDTAVYYCARGAGYLQRAFDIWGQGTMVTVSS
VL: DIQMTQSPSTLSASVGDRVTITCRASQSISSWLAWYQQKPGKAPKLLIYKASSLESGVPSRFSGSGSGTEFTLTISSLQPDDFATYYCQQFKSLSFTFGGGTKVEIK
B13: BIIB-12-1293 (antibody, V domains shown)
VH: B12 VH with A100S, Y102G, L103K, Q104H, A106G, F107L, I109V
VL: DIQMTQSPSSVSASVGDRVTITCRASQGISSWLAWYQQKPGKAPKLLIYAASSLQSGVPSRFSGSGSGTDFTLTISSLQPEDFATYYCQQANIFPFTFGGGTKVEIK
B14: BIIB-12-1294 (antibody, V domains shown)
VH: B2 VH with D99G, Q100T, G101R, Y102S, S105D, F106M, I108V, M114T
VL: B12 VL with F91V, K92N, S93T, L94F, S95P
B15: BIIB-12-1321 (antibody, V domains shown)
VH: QVQLVQSGAEVKKPGSSVKVSCKASGGTFSSYAISWVRQAPGQGLEWMGGIIPIFGTANYAQKFQGRVTITADESTSTAYMELSSLRSEDTAVYYCARTPDTSSATDWGQGTLVTVSS
VL: EIVMTQSPATLSLSPGERATLSCRASQSVSSYLAWYQQKPGQAPRLLIYDSSNRATGIPARFSGSGSGTDFTLTISSLEPEDFAVYYCQQFTNLPYTFGGGTKVEIK
B16: BIIB-12-1311 (antibody, V domains shown)
VH: QVQLVESGGGVVQPGRSLRLSCAASGFTFSSYGMHWVRQAPGKGLEWVAVISYDGSNKYYADSVKGRFTISRDNSKNTLYLQMNSLRAEDTAVYYCAKGRHYWAVWGQGTLVTVSS
VL: B15 VL with M4L, S51A, F91A, T92S, Y96P
B17: BIIB-12-1301 (antibody, V domains shown)
VH: QVQLVESGGGVVQPGRSLRLSCAASGFTFSSYGMHWVRQAPGKGLEWVAVISYDGSNKYYADSVKGRFTISRDNSKNTLYLQMNSLRAEDTAVYYCARTGNYGRGMPYWGQGTLVTVSS
VL: B15 VL with M4L, S51A, N53K, F91S, T92S, N93S, L94W, Y96P
B18: BIIB-12-933 (antibody, V domains shown)
VH: B8 VH with G99L, S100P, G101R, R102F, S103T, Y105T, H106A
VL: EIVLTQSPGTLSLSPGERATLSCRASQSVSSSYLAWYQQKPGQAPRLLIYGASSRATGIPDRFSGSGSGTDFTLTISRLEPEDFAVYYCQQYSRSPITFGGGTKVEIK
B19: BIIB-12-924 (antibody, V domains shown)
VH: B17 VH with R98K, T99G, G100K, N101S, Y102S, G103E, M106L, P107N, Y108P
VL: B13 VL with A91G, I93S, F96L
B20: BIIB-12-1332 (antibody, V domains shown)
VH: B2 VH with H35S, D99L, Q100G, G101R, Y102K, S105V
VL: B13 VL with A91V, I93S, F96L, I106F
B21: BIIB-12-1298 (antibody, V domains shown)
VH: B8 VH with R98K, S100G, G101S, R102D, S103R, G104R, Y105V, H106G, Y107S
VL: B13 VL with A91T, I93S, F94L, F96I
B22: BIIB-12-1320 (antibody, V domains shown)
VH: QLQLQESGPGLVKPSETLSLTCTVSGGSISSSSYYWGWIRQPPGKGLEWIGSIYYSGSTYYNPSLKSRVTISVDTSKNQFSLKLSSVTAADTAVYYCARGSGLLVREHYYYYMDVWGKGTTVTVS
VL: B13 VL with V11L, G28S, W32Y, A34N, N92D, I93D, F94T, F96W
B23: BIIB-12-1295 (antibody, V domains shown)
VH: QVQLVQSGAEVKKPGASVKVSCKASGYTFTSYYMVWVRQAPGQGLEWMGIINPSGGSTSYAQKFQGRVTMTRDTSTSTVYMELSSLRSEDTAVYYCARVGGATTGKIGYGMDVWGQGTTVTVSS
VL: B13 VL with S53N, N92I, I93S, F94L, F96I
B24: BIIB-12-916 (antibody, V domains shown)
VH: B9 VH with D99G, M102Q, A103K, R104A, G105T, A106R, S107R, P108V, Y110V, L116V
VL: B13 VL with V11L, G28S, W32Y, A34N, A91L, N92A, F94T
B25: BIIB-12-1300 (antibody, V domains shown)
VH: B16 VH with K98R, R100S, H101K, W103L, A104H, V105A
VL: B13 VL with N92S, I93S, F96P

Target: T1, FX zymogen
Assay: BLI

Row | Binder | Kd [nM]
1 | B1 | 47
2 | B2 | 15.2
3 | B3 | 25.9
4 | B4 | 34.4
5 | B5 | 36.1
6 | B6 | 29.3
7 | B7 | 13.5
8 | B8 | 42.3
9 | B9 | 24
10 | B10 | 38.3
11 | B11 | 66
12 | B12 | 33.8
13 | B13 | 26
14 | B14 | 37.3
15 | B15 | 10.6
16 | B16 | 29
17 | B17 | 65
18 | B18 | 50.3
19 | B19 | 22.3
20 | B20 | 53.5
21 | B21 | 33.5
22 | B22 | 8.27
23 | B23 | 42.6
24 | B24 | 15.6
25 | B25 | 48.6
